According to PMC7246916, “14-3-3 Proteins and Other Candidates form Protein-Protein Interactions with the Cytosolic C-terminal End of SOS1 Affecting Its Transport Activity” (International Journal of Molecular Sciences, 2020):

T1: recombinant (10xHis)-labelled At14-3-3ω (Arabidopsis thaliana, UniProt Q01525 1-259)
T1 construct: 14-3-3 isoform omega, Arabidopsis thaliana; Construct details are in the Suppl; Methods; also called His-tagged 14-3-3ω protein; source: host in the Suppl; Methods
T1 sequence (looked up): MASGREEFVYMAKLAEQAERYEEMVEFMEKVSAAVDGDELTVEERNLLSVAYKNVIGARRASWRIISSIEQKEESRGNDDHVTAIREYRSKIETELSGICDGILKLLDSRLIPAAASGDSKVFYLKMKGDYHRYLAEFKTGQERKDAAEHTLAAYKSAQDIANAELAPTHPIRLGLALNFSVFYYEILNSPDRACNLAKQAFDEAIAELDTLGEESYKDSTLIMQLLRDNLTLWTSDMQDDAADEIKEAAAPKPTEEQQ


Target: T1, recombinant (10xHis)-labelled At14-3-3ω
Assay: peptide or protein array; 15-mer synthetic peptides of SOS1 from amino acid 446, overlapping by 12, spotted on a cellulose membrane; incubated with recombinant 10xHis-14-3-3ω; anti-His antibody, HRP-coupled anti-mouse antibody, ECL
Settings: both partners purified

Binder | binding result
NTMVESSDEEDEDEG (SOS1 (NHX7), Arabidopsis thaliana; source: synthetic peptide, immobilized on a cellulose membrane) [SOS1 C-term 15-mer peptide, spot H14] | binds
TRQNTMVESSDEEDE (SOS1 (NHX7), Arabidopsis thaliana; source: synthetic peptide, immobilized on a cellulose membrane) [SOS1 C-term 15-mer peptide, spot H13] | binds
